The source of these data is publication PMC8822709 (Journal of Biomedical Science, 2022).

The target of test [1] is T1, ENO1 (Alpha-enolase), endogenous in RD cells (Homo sapiens (RD cells), UniProt P06733).
T1 construct: also called α-enolase
Description: affinity purification with mass spectrometry. Particulars: one partner purified.

Test [2] addresses T2, ENO1 recombinant protein (α-enolase) (Homo sapiens, UniProt P06733).
T2 construct: also called hENO1; rhENO1; source: recombinant protein
Description: ELISA; indirect ELISA; recombinant protein (5 μg/mL) coated in carbonate-bicarbonate pH 9.6, 07-IgG1 diluted and added at 37 °C for 1 h, HRP goat anti-human IgG, OD 450 nm. Particulars: both partners purified.

The target in test [3] is T3, PEG-precipitated EV-A71 (Enterovirus A71, stock strain …, UniProt Q9DY01).
T3 construct: also called EV-A71 protein; EV-A71 capsid proteins; source: PEG-precipitated EV-A71 (virus propagated in RD cells)
The test is described as follows: ELISA. Particulars: both partners purified.

T1 sequence (P06733 whole entry): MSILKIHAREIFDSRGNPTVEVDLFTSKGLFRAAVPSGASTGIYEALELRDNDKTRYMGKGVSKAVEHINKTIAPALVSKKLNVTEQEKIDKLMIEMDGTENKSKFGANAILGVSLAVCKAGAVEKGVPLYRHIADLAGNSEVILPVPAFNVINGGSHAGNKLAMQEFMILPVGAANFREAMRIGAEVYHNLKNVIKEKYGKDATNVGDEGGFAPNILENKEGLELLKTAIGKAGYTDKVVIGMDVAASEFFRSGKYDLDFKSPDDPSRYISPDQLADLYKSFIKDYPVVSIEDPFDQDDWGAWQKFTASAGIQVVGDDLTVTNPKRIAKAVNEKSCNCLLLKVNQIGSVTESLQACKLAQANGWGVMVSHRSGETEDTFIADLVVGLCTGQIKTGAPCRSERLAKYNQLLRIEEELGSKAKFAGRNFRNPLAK
T2 sequence (P06733 whole entry): as above

B1: 07-human IgG1 antibody (antibody, V domains shown)
VH: EVQLLESGAVVKKPGESLKISCTGSGYVFRDYWVGWVRQMPGKGLEWLGMIYPDEFDIRYSPSFQGQVTISADKSIDTAYLQLSSLEASDTGIYYCARHGNTGCGGTMCYKSYLYYGMDVWGQGTTVTVS
VL: ELVLTQSPSVSVSPGQTASITCSGDKLGDKYACWYQQKPGQSPVLVIYQDNKRPSGIPERFSGSNSGNTATLTISGTRAMDEADYYCQAWDSSTCYVFGTGTKLTVL
notes: also called 07-IgG1; clone 07 recombinant antibody; source: ExpiCHO, co-transfected (pcDNA3.4 heavy and light chain), purified by protein A resin
Take B1: the binding result is “binds” in test [1], “binds” in test [2] and “no binding” in test [3].
